Experimental data taken from patent US20220288160A1 (SYNKLINO A S, published 2022).

Columns and labels:
US28 = target: T1, US28 (human cytomegalovirus, UniProt P69332 1-354); assay: cell-based or functional assay
T1 sequence: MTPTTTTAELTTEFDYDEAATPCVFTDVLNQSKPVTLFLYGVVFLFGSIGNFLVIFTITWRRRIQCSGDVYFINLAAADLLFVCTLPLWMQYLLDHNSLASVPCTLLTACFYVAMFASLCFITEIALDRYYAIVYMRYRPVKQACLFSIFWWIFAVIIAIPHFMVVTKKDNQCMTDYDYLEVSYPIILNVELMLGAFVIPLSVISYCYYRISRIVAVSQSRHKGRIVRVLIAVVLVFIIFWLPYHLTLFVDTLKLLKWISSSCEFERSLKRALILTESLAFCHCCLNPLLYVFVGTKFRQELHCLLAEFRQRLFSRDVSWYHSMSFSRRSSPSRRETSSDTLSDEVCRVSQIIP

CX3CR1 = target: T2, CX3CR1 (human, UniProt P49238 1-355); assay: cell-based or functional assay
T2 sequence: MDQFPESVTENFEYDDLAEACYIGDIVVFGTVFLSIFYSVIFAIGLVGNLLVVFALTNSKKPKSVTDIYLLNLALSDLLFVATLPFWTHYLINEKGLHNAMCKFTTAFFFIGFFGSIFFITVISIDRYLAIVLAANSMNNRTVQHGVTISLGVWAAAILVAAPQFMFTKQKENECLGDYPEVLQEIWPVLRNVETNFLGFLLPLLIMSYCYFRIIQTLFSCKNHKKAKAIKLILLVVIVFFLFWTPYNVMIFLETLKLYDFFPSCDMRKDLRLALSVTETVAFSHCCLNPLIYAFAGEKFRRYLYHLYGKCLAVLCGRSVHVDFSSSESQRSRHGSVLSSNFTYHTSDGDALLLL

B1: SYN001 (other)
chain: MQHHGVTKCNITCSKMTSKIPVALLIHYQQNQASCGKRAIILETRQHRLACADPKEQWVKDAMQHLDRQAAALTRNRQPRGWEQLEQSGYPVQRLVALYLAARLSWNQVDQVIRNALASPGSGGDLGEAIREQPEQARLALTLAAAESERFVRQGTGNDEAGAASGPADSGDALLERNYPTGAEFLGDGGDISFSTRGTQNWTVERLLQAHRQLEERGYVFVGYHGTFLEAAQSIVFGGVRARSQDLDAIWRGFYIAGDPALAYGYAQDQEPDARGRIRNGALLRVYVPRSSLPGFYRTGLTLAAPEAAGEVERLIGHPLPLRLDAITGPEEEGGRLETILGWPLAERTVVIPSAIPTDPRNVGGDLDPSSIPDKEQAISALPDYASQPGKPPKDE
US28
  Log IC50 (cell killing): -10.7
CX3CR1
  Log IC50 (cell killing): -7.82
